These results are taken from US20200405832A1 (MINERVA BIOTECHNOLOGIES, published 2020).

Experiment [1] has as its target T1, PSMGFR peptide (Primary Sequence of the MUC1 Growth Factor Receptor).
T1 construct: 45-residue peptide from the extracellular domain of cleaved MUC1 (MUC1*); also called MUC1* peptide; MUC1* extra cellular domain peptide
T1 peptide: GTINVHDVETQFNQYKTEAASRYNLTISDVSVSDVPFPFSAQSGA
The experiment can be described thus: binding to peptide; assay not described.

Experiment [2] addresses T1, PSMGFR peptide (Primary Sequence of the …). Description: binding assay on peptide.
A further experiment concerns the target T2, NME7-AB (UniProt Q9Y5B8 92-376).
T2 sequence (looked up): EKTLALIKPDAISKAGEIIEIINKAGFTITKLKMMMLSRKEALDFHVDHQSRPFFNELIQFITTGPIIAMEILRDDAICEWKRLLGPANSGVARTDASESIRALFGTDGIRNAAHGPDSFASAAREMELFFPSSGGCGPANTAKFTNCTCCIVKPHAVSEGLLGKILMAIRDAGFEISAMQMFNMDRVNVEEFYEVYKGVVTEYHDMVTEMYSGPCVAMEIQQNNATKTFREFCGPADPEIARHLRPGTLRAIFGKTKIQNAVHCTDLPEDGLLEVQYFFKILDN
The experiment can be described thus: binding assay on peptide.

In the next experiment the target is T3, dimeric NME1 (human, UniProt P15531 1-152, limits assumed).
T3 construct: The construct used is not described; also called NM23-H1 dimers; dimeric NM23-H1
Description: binding assay on peptide.

T3 sequence (P15531 whole entry): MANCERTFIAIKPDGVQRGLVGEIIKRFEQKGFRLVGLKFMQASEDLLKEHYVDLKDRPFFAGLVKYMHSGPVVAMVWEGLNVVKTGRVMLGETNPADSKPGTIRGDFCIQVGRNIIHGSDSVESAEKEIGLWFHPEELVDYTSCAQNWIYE

B1: mouse monoclonal antibody MN-C3 (antibody, V domains shown)
VH: QVQLQQSGPELVRPGVSVKISCKGSGYRFTDYAMNWVKQSHAKSLEWIGVISTFSGNTNFNQKFKGKATMTVDKSSSTAYMELARLTSEDSAMYYCARSDYYGPYFDYWGQGTTLTVSS
VL: DVLMTQTPLSLPVSLGDQASISCRSSQTIVHSNGNTYLEWYLQKPGQSPKLLIYKVSNRFSGVPDRFSGSGSGTDFTLKINRVEAEDLGVYYCFQGSHVPFTFGSGTKLEIK
notes: also called Min-C3
Take B1: the binding result in experiment [1] was “binds”.

B2: mouse monoclonal antibody MN-C2 (antibody, V domains shown)
VH: EVQLEESGGGLVKPGGSLKLSCAASGFTFSGYAMSWVRQTPEKRLEWVATISSGGTYIYYPDSVKGRFTISRDNAKNTLYLQMSSLRSEDTAMYYCARLGGDNYYEYFDVWGAGTTVTVSS
VL: DIVITQSTASLGVSLGQRATISCRASKSVSTSGYSYMHWYQQRPGQPPKLLIYLASNLESGVPARFSGSGSGTDFTLNIHPVEEEDAATYYCQHSRELPFTFGGGTKLEIKR
notes: The printed entries run a few residues into the constant region; also called Min-C2
Consider B2, for which the binding result in experiment [2] was “binds”.

B3: mouse monoclonal antibody MN-E6 (antibody, V domains shown)
VH: EVKVVESGGDLVKPGGSLKLSCVVSGFTFSRYGMSWVRQTPGKRLEWVATISGGGTYIYYPDSVKGRFTISRDNAKNTLYLQMSSLKSEDTAMYHCTRDNYGRNYDYGMDYWGQGTSVTVSS
VL: QIVLTQSPAIMSASPGEEVTLTCSATSSVSYIHWFQQRPGTSPKLWIYSTSNLASGVPVRFSGSGYGTSYSLTISRMEAEDAATYYCQQRSSSPFTFGSGTKLEIK
notes: also called Min-E6
With B3, the binding result in experiment [2] is “binds”.
For the molecule GTINVHDVETQFNQYKTEAASRYNLTISDVSVSDV (also called C-10 PSMGFR) [PSMGFR peptide lacking the 10 C-terminal amino acids], the binding result with NME7-AB and with dimeric NME1 was “no binding” throughout.
